Reference: the supplement of paper PMC9112550, “Optimization of the antimicrobial peptide Bac7 by deep mutational scanning” (BMC Biology, 2022)

Test system: Escherichia coli TOP10
Assay: shrunken log2 fold change of peptide-encoding DNA abundance (4.5 h post-induction vs induction); higher = less antimicrobial activity (less host growth inhibition)
Details: time post-induction: 4.5 h; library: site-saturation at positions 5, 18, 19, 20
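Also: peptides expressed intracellularly from a pBAD plasmid library in pooled LB shake-flask culture, induced with 0.3% L-arabinose, DNA abundance read by NGS, three biological replicates, DESeq2 with apeglm shrinkage.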

Row | Sequence | shrunken log2 fold change
1 | RRIRWRPPRLPRPRPRPIWSPRP | 0.629
2 | RRIRIRPPRLPRPRPRPRRSPRP | 0.347
3 | RRIRERPPRLPRPRPRPINGPRP | 0.0683
4 | RRIRQRPPRLPRPRPRPRWWPRP | 0.417
5 | RRIRERPPRLPRPRPRPCKQPRP | -0.086
6 | RRIRSRPPRLPRPRPRPMAAPRP | 1.8
7 | RRIRYRPPRLPRPRPRPRCHPRP | -0.512
8 | RRIRLRPPRLPRPRPRPQYWPRP | -0.275
9 | RRIRGRPPRLPRPRPRPHCPPRP | 0.084
10 | RRIRLRPPRLPRPRPRPQWRPRP | 0.087
11 | RRIRPRPPRLPRPRPRPDPAPRP | 0.326
12 | RRIRFRPPRLPRPRPRPIQIPRP | -0.234
13 | RRIRFRPPRLPRPRPRPPRWPRP | 0.659
14 | RRIRCRPPRLPRPRPRPCLRPRP | -0.229
15 | RRIRTRPPRLPRPRPRPFPMPRP | -0.596
16 | RRIRFRPPRLPRPRPRPPTQPRP | 0.327
17 | RRIRGRPPRLPRPRPRPDDDPRP | 0.0442
18 | RRIRKRPPRLPRPRPRPNCEPRP | 0.082
19 | RRIRQRPPRLPRPRPRPVWPPRP | 0.303
20 | RRIRLRPPRLPRPRPRPYWRPRP | 0.231
21 | RRIRFRPPRLPRPRPRPEFVPRP | 0.0629
22 | RRIRGRPPRLPRPRPRPGNIPRP | -0.104
23 | RRIRIRPPRLPRPRPRPSGMPRP | -0.433
24 | RRIRKRPPRLPRPRPRPRHTPRP | 0.328
25 | RRIRTRPPRLPRPRPRPREFPRP | 0.33

Row | Sequence | shrunken log2 fold change
26 | RRIRFRPPRLPRPRPRPRWWPRP | 0.34
27 | RRIRMRPPRLPRPRPRPLEHPRP | 0.0245
28 | RRIRIRPPRLPRPRPRPRICPRP | -0.3
29 | RRIRCRPPRLPRPRPRPYDHPRP | -0.797
30 | RRIRIRPPRLPRPRPRPTTQPRP | 0.102
31 | RRIRARPPRLPRPRPRPSTDPRP | 1.08
32 | RRIRWRPPRLPRPRPRPERCPRP | 0.449
33 | RRIRYRPPRLPRPRPRPATAPRP | 0.132
34 | RRIRPRPPRLPRPRPRPYWDPRP | -0.376
35 | RRIRDRPPRLPRPRPRPGCAPRP | 0.968
36 | RRIRQRPPRLPRPRPRPACEPRP | -0.0795
37 | RRIRVRPPRLPRPRPRPWEPPRP | 0.13
38 | RRIRDRPPRLPRPRPRPVAIPRP | 0.711
39 | RRIRIRPPRLPRPRPRPMSGPRP | 0.174
40 | RRIRHRPPRLPRPRPRPPKIPRP | 0.282
41 | RRIRARPPRLPRPRPRPRFYPRP | -0.0395
42 | RRIRSRPPRLPRPRPRPHADPRP | 0.121
43 | RRIRGRPPRLPRPRPRPSTIPRP | 0.235
44 | RRIRQRPPRLPRPRPRPSPGPRP | 0.194
45 | RRIRVRPPRLPRPRPRPNGQPRP | 0.0697
46 | RRIRCRPPRLPRPRPRPCNEPRP | -0.514
47 | RRIRLRPPRLPRPRPRPPGGPRP | 0.664
48 | RRIRDRPPRLPRPRPRPMNNPRP | -0.424
49 | RRIRARPPRLPRPRPRPLSRPRP | 0.203
50 | RRIRNRPPRLPRPRPRPEGDPRP | -0.043

Row | Sequence | shrunken log2 fold change
51 | RRIRMRPPRLPRPRPRPNVPPRP | 0.0131
52 | RRIRNRPPRLPRPRPRPGEPPRP | 0.033
53 | RRIRPRPPRLPRPRPRPCWLPRP | -0.018
54 | RRIRLRPPRLPRPRPRPVLPPRP | -0.0546
55 | RRIRMRPPRLPRPRPRPNMMPRP | -0.0235
56 | RRIRNRPPRLPRPRPRPTCTPRP | -0.0629
57 | RRIRFRPPRLPRPRPRPCKDPRP | -0.198
58 | RRIRYRPPRLPRPRPRPYPGPRP | -0.379
59 | RRIRVRPPRLPRPRPRPINYPRP | -0.348
60 | RRIRCRPPRLPRPRPRPGWDPRP | 0.257
61 | RRIRNRPPRLPRPRPRPPVMPRP | 0.139
62 | RRIRSRPPRLPRPRPRPDPLPRP | 0.0174
63 | RRIRRRPPRLPRPRPRPSDFPRP | -0.116
64 | RRIRDRPPRLPRPRPRPQNIPRP | -0.126
65 | RRIRLRPPRLPRPRPRPTRNPRP | 0.24
66 | RRIRMRPPRLPRPRPRPCWTPRP | -0.218
67 | RRIRMRPPRLPRPRPRPQTGPRP | -0.0549
68 | RRIRKRPPRLPRPRPRPKSFPRP | -0.125
69 | RRIRHRPPRLPRPRPRPYGCPRP | -0.118
70 | RRIRKRPPRLPRPRPRPFFNPRP | 0.0296
71 | RRIRMRPPRLPRPRPRPHQQPRP | 0.107
72 | RRIRRRPPRLPRPRPRPYCCPRP | -0.565
73 | RRIRERPPRLPRPRPRPHSEPRP | -0.148
74 | RRIRIRPPRLPRPRPRPQWHPRP | -0.381
75 | RRIRFRPPRLPRPRPRPEYGPRP | -0.621

Row | Sequence | shrunken log2 fold change
76 | RRIRNRPPRLPRPRPRPSSNPRP | -0.416
77 | RRIRPRPPRLPRPRPRPYTHPRP | -1.35
78 | RRIRERPPRLPRPRPRPWQHPRP | -0.00568
79 | RRIRPRPPRLPRPRPRPKNFPRP | -0.262
80 | RRIRNRPPRLPRPRPRPICLPRP | 0.00214
81 | RRIRTRPPRLPRPRPRPDIWPRP | -0.392
82 | RRIRPRPPRLPRPRPRPNNGPRP | -0.335
83 | RRIRCRPPRLPRPRPRPKRAPRP | 0.778
84 | RRIRCRPPRLPRPRPRPVTIPRP | -0.461
85 | RRIRCRPPRLPRPRPRPSIAPRP | -0.3
86 | RRIRARPPRLPRPRPRPKGKPRP | 1.12
87 | RRIRNRPPRLPRPRPRPRCVPRP | -0.0119
88 | RRIRGRPPRLPRPRPRPIWRPRP | 0.744
89 | RRIRVRPPRLPRPRPRPINCPRP | -0.12
90 | RRIRQRPPRLPRPRPRPNQAPRP | -0.0235
91 | RRIRYRPPRLPRPRPRPPIRPRP | -0.121
92 | RRIRERPPRLPRPRPRPKDLPRP | 0.167
93 | RRIRARPPRLPRPRPRPNGNPRP | -0.191
94 | RRIRYRPPRLPRPRPRPFCYPRP | -0.432
95 | RRIRTRPPRLPRPRPRPMPYPRP | -0.159
96 | RRIRLRPPRLPRPRPRPHDSPRP | 0.0936
97 | RRIRPRPPRLPRPRPRPWTQPRP | -0.0236
98 | RRIRYRPPRLPRPRPRPVSPPRP | -0.449
99 | RRIRYRPPRLPRPRPRPIFNPRP | -0.89
100 | RRIRLRPPRLPRPRPRPQAEPRP | 0.0388

Row | Sequence | shrunken log2 fold change
101 | RRIRKRPPRLPRPRPRPPLPPRP | 0.74
102 | RRIRTRPPRLPRPRPRPIDWPRP | 0.042
103 | RRIRGRPPRLPRPRPRPPIAPRP | 0.874
104 | RRIRIRPPRLPRPRPRPRTQPRP | 0.106
105 | RRIRMRPPRLPRPRPRPINTPRP | -0.387
106 | RRIRHRPPRLPRPRPRPYNKPRP | -0.681
107 | RRIRWRPPRLPRPRPRPPFWPRP | 0.836
108 | RRIRFRPPRLPRPRPRPIHTPRP | 0.0523
109 | RRIRERPPRLPRPRPRPERMPRP | -0.0648
110 | RRIRIRPPRLPRPRPRPCMYPRP | -0.573
111 | RRIRLRPPRLPRPRPRPYELPRP | 0.00404
112 | RRIRFRPPRLPRPRPRPMKEPRP | -0.187
113 | RRIRCRPPRLPRPRPRPFRCPRP | -0.0165
114 | RRIRRRPPRLPRPRPRPCSNPRP | -0.166
115 | RRIRARPPRLPRPRPRPLINPRP | 0.0648
116 | RRIRNRPPRLPRPRPRPWVIPRP | -0.552
117 | RRIRNRPPRLPRPRPRPRWSPRP | -0.054
118 | RRIRTRPPRLPRPRPRPRALPRP | 0.116
119 | RRIRNRPPRLPRPRPRPWFAPRP | 0.801
120 | RRIRYRPPRLPRPRPRPPCFPRP | -0.242
121 | RRIRSRPPRLPRPRPRPTNFPRP | 0.0979
122 | RRIRKRPPRLPRPRPRPDWAPRP | -0.0624
123 | RRIRFRPPRLPRPRPRPACDPRP | 0.103
124 | RRIRQRPPRLPRPRPRPKNGPRP | -0.159
125 | RRIRTRPPRLPRPRPRPDQSPRP | -0.0809

Row | Sequence | shrunken log2 fold change
126 | RRIRARPPRLPRPRPRPYAMPRP | 0.0392
127 | RRIRGRPPRLPRPRPRPVVAPRP | 1.19
128 | RRIRYRPPRLPRPRPRPVDIPRP | -0.00973
129 | RRIRFRPPRLPRPRPRPFVPPRP | -0.668
130 | RRIRTRPPRLPRPRPRPLHSPRP | 0.186
131 | RRIRDRPPRLPRPRPRPEITPRP | 0.0482
132 | RRIRNRPPRLPRPRPRPVVQPRP | 0.0488
133 | RRIRKRPPRLPRPRPRPGDWPRP | 0.485
134 | RRIRTRPPRLPRPRPRPMTYPRP | -0.0748
135 | RRIRGRPPRLPRPRPRPAGTPRP | 0.752
136 | RRIRERPPRLPRPRPRPTDTPRP | -0.415
137 | RRIRQRPPRLPRPRPRPVRVPRP | 0.686
138 | RRIRCRPPRLPRPRPRPSCHPRP | -0.301
139 | RRIRMRPPRLPRPRPRPERIPRP | 0.0158
140 | RRIRIRPPRLPRPRPRPPCIPRP | -0.0558
141 | RRIRMRPPRLPRPRPRPMQTPRP | -0.00202
142 | RRIRARPPRLPRPRPRPTQSPRP | 0.902
143 | RRIRWRPPRLPRPRPRPHIPPRP | -0.227
144 | RRIRSRPPRLPRPRPRPDTSPRP | -0.0998
145 | RRIRSRPPRLPRPRPRPNNMPRP | -0.534
146 | RRIRPRPPRLPRPRPRPHLIPRP | -0.287
147 | RRIRLRPPRLPRPRPRPRDMPRP | 0.00118
148 | RRIRHRPPRLPRPRPRPVSIPRP | -0.00904
149 | RRIRHRPPRLPRPRPRPCFFPRP | -0.193
150 | RRIRLRPPRLPRPRPRPNESPRP | -0.00771
